Data set [1] concerns the target T1, Lys(Dnp)-ATNATAAPRIVGG-Lys(Abz).
T1 chain: KATNATAAPRIVGGK

Data set [2] concerns the target T2, Lys(Dnp)-ATNATMRPRIVGG-Lys(Abz).
T2 chain: KATNATMRPRIVGGK

Data set [3] concerns the target T3, Lys(Dnp)-ATNATITPRIVGG-Lys(Abz).
T3 chain: KATNATITPRIVGGK

In data set [4] the target is T4, Lys(Dnp)-ATNATVIPRIVGG-Lys(Abz).
T4 chain: KATNATVIPRIVGGK

The target of data set [5] is T5, Lys(Dnp)-ATNATIWPRIVGG-Lys(Abz).
T5 chain: KATNATIWPRIVGGK

Data set [6] has as its target T6, Lys(Dnp)-ATNATVVPRIVGG-Lys(Abz).
T6 chain: KATNATVVPRIVGGK

For data set [7], the target named is T7, Lys(Dnp)-ATNATPFPRIVGG-Lys(Abz).
T7 chain: KATNATPFPRIVGGK

In data set [8] the target is T8, Lys(Dnp)-ATNATMQPRIVGG-Lys(Abz).
T8 chain: KATNATMQPRIVGGK

Data set [9] deals with T9, Lys(Dnp)-ATNATWTPRIVGG-Lys(Abz).
T9 chain: KATNATWTPRIVGGK

For data set [10], the target named is T10, Lys(Dnp)-ATNATIIPRIVGG-Lys(Abz).
T10 chain: KATNATIIPRIVGGK

In data set [11] the target is T11, Lys(Dnp)-ATNATFWPRIVGG-Lys(Abz).
T11 chain: KATNATFWPRIVGGK

Data set [12] addresses T12, Lys(Dnp)-ATNATLHPRIVGG-Lys(Abz).
T12 chain: KATNATLHPRIVGGK

In data set [13] the target is T13, Lys(Dnp)-ATNATPYPRIVGG-Lys(Abz).
T13 chain: KATNATPYPRIVGGK

Data set [14] deals with T14, Lys(Dnp)-ATNATFHPRIVGG-Lys(Abz).
T14 chain: KATNATFHPRIVGGK

The target in data set [15] is T15, Lys(Dnp)-ATNATPDPRIVGG-Lys(Abz).
T15 chain: KATNATPDPRIVGGK

Data set [16] deals with T16, Lys(Dnp)-ATNATPAPRIVGG-Lys(Abz).
T16 chain: KATNATPAPRIVGGK

Data set [17] deals with T17, Lys(Dnp)-ATNATKSPRIVGG-Lys(Abz).
T17 chain: KATNATKSPRIVGGK

Data set [18] has as its target T18, Lys(Dnp)-ATNATKKPRIVGG-Lys(Abz).
T18 chain: KATNATKKPRIVGGK

Data set [19] addresses T19, Lys(Dnp)-ATNATFLPRIVGG-Lys(Abz).
T19 chain: KATNATFLPRIVGGK

For data set [20], the target named is T20, Lys(Dnp)-ATNATELPRIVGG-Lys(Abz).
T20 chain: KATNATELPRIVGGK

The target in data set [21] is T21, Lys(Dnp)-ATNATQRPRIVGG-Lys(Abz).
T21 chain: KATNATQRPRIVGGK

Data set [22] addresses T22, Lys(Dnp)-ATNATPTPRIVGG-Lys(Abz).
T22 chain: KATNATPTPRIVGGK

The target in data set [23] is T23, Lys(Dnp)-ATNATHIPRIVGG-Lys(Abz).
T23 chain: KATNATHIPRIVGGK

In data set [24] the target is T24, Lys(Dnp)-ATNATRYPRIVGG-Lys(Abz).
T24 chain: KATNATRYPRIVGGK

The target of data set [25] is T25, Lys(Dnp)-ATNATKQPRIVGG-Lys(Abz).
T25 chain: KATNATKQPRIVGGK

For data set [26], the target named is T26, Lys(Dnp)-ATNATIDPRIVGG-Lys(Abz).
T26 chain: KATNATIDPRIVGGK

Data set [27] has as its target T27, Lys(Dnp)-ATNATRIPRIVGG-Lys(Abz).
T27 chain: KATNATRIPRIVGGK

For data set [28], the target named is T28, Lys(Dnp)-ATNATSKPRIVGG-Lys(Abz).
T28 chain: KATNATSKPRIVGGK

Data set [29] addresses T29, Lys(Dnp)-ATNATDHPRIVGG-Lys(Abz).
T29 chain: KATNATDHPRIVGGK

The target in data set [30] is T30, Lys(Dnp)-ATNATWVPRIVGG-Lys(Abz).
T30 chain: KATNATWVPRIVGGK

In data set [31] the target is T31, Lys(Dnp)-ATNATIEPRIVGG-Lys(Abz).
T31 chain: KATNATIEPRIVGGK

For data set [32], the target named is T32, Lys(Dnp)-ATNATVGPRIVGG-Lys(Abz).
T32 chain: KATNATVGPRIVGGK

Data set [33] addresses T33, Lys(Dnp)-ATNATKVPRIVGG-Lys(Abz).
T33 chain: KATNATKVPRIVGGK

For data set [34], the target named is T34, Lys(Dnp)-ATNATFEPRIVGG-Lys(Abz).
T34 chain: KATNATFEPRIVGGK

The target in data set [35] is T35, Lys(Dnp)-ATNATQNPRIVGG-Lys(Abz).
T35 chain: KATNATQNPRIVGGK

Data set [36] has as its target T36, Lys(Dnp)-ATNATQDPRIVGG-Lys(Abz).
T36 chain: KATNATQDPRIVGGK

Data set [37] deals with T37, Lys(Dnp)-ATNATGTPRIVGG-Lys(Abz).
T37 chain: KATNATGTPRIVGGK

In data set [38] the target is T38, Lys(Dnp)-ATNATGEPRIVGG-Lys(Abz).
T38 chain: KATNATGEPRIVGGK

Data set [39] deals with T39, Lys(Dnp)-ATNATKLPRIVGG-Lys(Abz).
T39 chain: KATNATKLPRIVGGK

The target in data set [40] is T40, Lys(Dnp)-ATNATYAPRIVGG-Lys(Abz).
T40 chain: KATNATYAPRIVGGK

Data set [41] addresses T41, Lys(Dnp)-ATNATKAPRIVGG-Lys(Abz).
T41 chain: KATNATKAPRIVGGK

B1: Human plasma purified Factor Xa (protein)
chain 1: ANSFLEEMKKGHLERECMEETCSYEEAREVFEDSDKTNEFWNKYKDGDQCETSPCQNQGKCKDGLGEYTCTCLEGFEGKNCELFTRKLCSLDNGDCDQFCHEEQNSVVCSCARGYTLADNGKACIPTGPYPCGKQTLER
chain 2: IVGGQECKDGECPWQALLINEENEGFCGGTILSEFYILTAAHCLYQAKRFKVRVGDRNTEQEEGGEAVHEVEVVIKHNRFTKETYDFDIAVLRLKTPITFRMNVAPACLPERDWAESTLMTQKTGIVSGFGRTHEKGRQSTRLKMLEVPYVDRNSCKLSSSFIITQNMFCAGYDTKQEDACQGDSGGPHVTRFKDTYFVTGIVSWGEGCARKGKYGIYTKVTAFLKWIDRSMKTRGLPKAKSHAPEVITSSPLK
Regarding B1, the FXa kcat/KM in [1] amounted to 45 M⁻¹ s⁻¹; in data set [2], 490 M⁻¹ s⁻¹; in data set [3], 840 M⁻¹ s⁻¹; in data set [4], 120 M⁻¹ s⁻¹; in data set [5], 1500 M⁻¹ s⁻¹; in [6], 54 M⁻¹ s⁻¹. Moreover, the FXa kcat/KM in data set [7] is 69 M⁻¹ s⁻¹; in data set [8], 950 M⁻¹ s⁻¹; in [9], 46 M⁻¹ s⁻¹; in data set [10], 490 M⁻¹ s⁻¹; in data set [11], 370 M⁻¹ s⁻¹; in [12], 540 M⁻¹ s⁻¹. Moreover, the figures for the FXa kcat/KM in data set [13] and in data set [14] were 83 M⁻¹ s⁻¹ and 150 M⁻¹ s⁻¹, respectively.

B2: Human plasma purified Factor Xa (Molecular Innovations, Inc) (protein)
chain 1: ANSFLEEMKKGHLERECMEETCSYEEAREVFEDSDKTNEFWNKYKDGDQCETSPCQNQGKCKDGLGEYTCTCLEGFEGKNCELFTRKLCSLDNGDCDQFCHEEQNSVVCSCARGYTLADNGKACIPTGPYPCGKQTLER
chain 2: IVGGQECKDGECPWQALLINEENEGFCGGTILSEFYILTAAHCLYQAKRFKVRVGDRNTEQEEGGEAVHEVEVVIKHNRFTKETYDFDIAVLRLKTPITFRMNVAPACLPERDWAESTLMTQKTGIVSGFGRTHEKGRQSTRLKMLEVPYVDRNSCKLSSSFIITQNMFCAGYDTKQEDACQGDSGGPHVTRFKDTYFVTGIVSWGEGCARKGKYGIYTKVTAFLKWIDRSMKTRGLPKAKSHAPEVITSSPLK
With B2, the FXa kcat/KM stood at 790 M⁻¹ s⁻¹ in data set [15]; 170 M⁻¹ s⁻¹ in [16]; 84 M⁻¹ s⁻¹ in data set [17]; 25 M⁻¹ s⁻¹ in data set [18]; 530 M⁻¹ s⁻¹ in data set [19]; 100 M⁻¹ s⁻¹ in [20]. For the same protein, the FXa kcat/KM is 660 M⁻¹ s⁻¹ in data set [21]; 840 M⁻¹ s⁻¹ in data set [22]; 78 M⁻¹ s⁻¹ in [23]; 960 M⁻¹ s⁻¹ in data set [24]; 100 M⁻¹ s⁻¹ in data set [25]; 1300 M⁻¹ s⁻¹ in [26]. The FXa kcat/KM in data set [27] turned out to be 700 M⁻¹ s⁻¹; in data set [28], 13 M⁻¹ s⁻¹; in [29], 5 M⁻¹ s⁻¹; in [30] it was 86 M⁻¹ s⁻¹; in data set [31] it was 1300 M⁻¹ s⁻¹; in data set [32] it was 49 M⁻¹ s⁻¹. The FXa kcat/KM in [33] was 50 M⁻¹ s⁻¹; in [34], 140 M⁻¹ s⁻¹; in data set [35] it was 610 M⁻¹ s⁻¹; in data set [36] it was 680 M⁻¹ s⁻¹; in data set [37], 59 M⁻¹ s⁻¹; in data set [38], 87 M⁻¹ s⁻¹. In addition, the results for the FXa kcat/KM in data set [39], in data set [40] and in data set [41] were 89 M⁻¹ s⁻¹, 49 M⁻¹ s⁻¹ and 52 M⁻¹ s⁻¹, respectively.

Values taken from patent publication US20160024487.
